For orientation: Kd means the free concentration of one partner at which half of the binding sites on the other are occupied at equilibrium, for simple one-to-one binding.

Test [1] concerns the target T1, Histidine-rich glycoprotein (HRG), purified from human plasma (human, UniProt P04196 19-525).
T1 chain: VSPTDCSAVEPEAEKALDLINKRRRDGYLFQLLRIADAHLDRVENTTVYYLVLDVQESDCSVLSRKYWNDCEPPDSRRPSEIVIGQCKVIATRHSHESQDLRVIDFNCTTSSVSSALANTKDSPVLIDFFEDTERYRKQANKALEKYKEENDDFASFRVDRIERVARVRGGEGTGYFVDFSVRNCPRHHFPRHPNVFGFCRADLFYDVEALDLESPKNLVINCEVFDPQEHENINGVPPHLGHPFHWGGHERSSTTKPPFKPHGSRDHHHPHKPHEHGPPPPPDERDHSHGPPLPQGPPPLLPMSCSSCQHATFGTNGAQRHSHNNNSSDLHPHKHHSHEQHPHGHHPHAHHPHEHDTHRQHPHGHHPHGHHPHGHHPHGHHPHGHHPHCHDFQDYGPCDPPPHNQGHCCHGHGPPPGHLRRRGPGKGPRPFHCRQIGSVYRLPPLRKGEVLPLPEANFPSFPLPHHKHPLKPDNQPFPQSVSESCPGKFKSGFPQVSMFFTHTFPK
The test is described as follows: SPR. A general note: Surface plasmon resonance follows binding to a sensor surface in real time, without labels.

The target in test [2] is T2, Histidine-rich glycoprotein (HRG), purified from human plasma (human, UniProt P04196 19-525).
T2 construct: histidine-rich glycoprotein, human, 75 kDa plasma protein; source: purified from human plasma
T2 sequence (looked up): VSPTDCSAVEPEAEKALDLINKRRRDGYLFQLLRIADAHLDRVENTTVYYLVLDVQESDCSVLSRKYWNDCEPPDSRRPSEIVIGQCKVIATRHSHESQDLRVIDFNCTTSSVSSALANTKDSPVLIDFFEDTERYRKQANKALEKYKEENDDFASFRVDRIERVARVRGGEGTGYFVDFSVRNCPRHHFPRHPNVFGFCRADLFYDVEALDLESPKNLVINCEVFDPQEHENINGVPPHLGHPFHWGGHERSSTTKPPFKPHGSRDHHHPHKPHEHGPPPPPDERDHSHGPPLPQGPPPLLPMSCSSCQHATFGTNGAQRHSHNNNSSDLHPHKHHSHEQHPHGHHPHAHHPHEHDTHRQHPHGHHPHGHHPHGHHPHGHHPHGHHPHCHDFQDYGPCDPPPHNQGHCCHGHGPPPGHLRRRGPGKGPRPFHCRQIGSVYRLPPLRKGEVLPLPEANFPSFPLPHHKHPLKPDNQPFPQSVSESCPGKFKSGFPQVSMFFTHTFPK
The test is described as follows: SPR; BIAcore; exCLEC-1A-Fc fusion protein immobilised on a CM5 sensor chip; HRG flowed over. The following applies: both partners purified.

Test [3] has as its target T2, Histidine-rich glycoprotein (HRG), …. Kind of test: SPR; BIAcore; HRG purified from human plasma (5 μg/mL) immobilised on a CM5 chip; exCLEC-1A-Fc (3.125, 6.25, 12.5 or 25 μg/mL) or human recombinant exCLEC-1A flowed for 120 s. The following applies: both partners purified.

B1: human recombinant exCLEC-1A protein (domain or fragment)
chain: QYYQLSNTGQDTISQMEERLGNTSQELQSLQVQNIKLAGSLQHVAEKLCRELYNKAGAHRCSPCTEQWKWHGDNCYQFYKDSKSWEDCKYFCLSENSTMLKINKQEDLEFAASQSYSEFFYSYWTGLLRPDSGKAWLWMDGTPFTSELFHIIIDVTSPRSRDCVAILNGMIFSKDCKELKRCVCERRAGMVKPESLHVPPETLGEGD
For the molecule B1, in test [1], binding was characterised by a dissociation constant (Kd) of 400 nM.

B2: extracellular domain of CLEC-1A-Fc (exCLEC-1A-Fc) fusion protein (Fc fusion, UniProt Q8NC01 74-280, looked up)
chain: QYYQLSNTGQDTISQMEERLGNTSQELQSLQVQNIKLAGSLQHVAEKLCRELYNKAGAHRCSPCTEQWKWHGDNCYQFYKDSKSWEDCKYFCLSENSTMLKINKQEDLEFAASQSYSEFFYSYWTGLLRPDSGKAWLWMDGTPFTSELFHIIIDVTSPRSRDCVAILNGMIFSKDCKELKRCVCERRAGMVKPESLHVPPETLGEGD
notes: extracellular domain of CLEC-1A; Source, limits and the kind of Fc are told only in the Transparent Methods (Document S1), if at all
Consider B2, for which the figures for the Kd in test [2] and in test [3] were 10 nM and 7 nM, respectively.

Values taken from article PMC7267745, “Histidine-Rich Glycoprotein Inhibits High-Mobility Group Box-1-Mediated Pathways in Vascular Endothelial Cells through CLEC-1A” (iScience, 2020).
